Measurements published in US20020022239A1, “PHYTOFLUORS AS FLUORESCENT LABELS” (priority 1999, published 2002).

B1: Cph2-N197: Strep-Tagged N-terminal 197 amino acid region of Cph2 (SEQ ID NO: 9), module 1 only (protein)
chain: KLAVRAISRLQSLPGGDIGALCDTVVEDVQRLTGYDRVMVYQFHEDDHGEVVSEIRRSDLEPYLGLHYPATDIPQAARFLFKQNRVRMICDCNATPVKVVQSEELKRPLCLVNSTLRAPHGCHTQYMANMGSVASLALAIVVKGKDSSKLWGLVVGHHCSPRYVPFPLRYACEFLMQAFGLQLQMELQLASQLAEK
modifications: Strep-Tag
B2: cph2a (N390): first 390 amino acid residues of Cph2 (SLL0821), N-terminal phytochrome-related domain (protein, UniProt Q55434 1-390, looked up, fragment)
chain: MNPNRSLEDFLRNVINKFHRALTLRETLQVIVEEARIFLGVDRVKIYKFASDGSGEVLAEAVNRAALPSLLGLHFPVEDIPPQAREELGNQRKMIAVDVAHRRKKSHELSGRISPTEHSNGHYTTVDSCHIQYLLAMGVLSSLTVPVMQDQQLWGIMAVHHSKPRRFTEQEWETMALLSKEVSLAITQSQLSRQVHQQQVQEALVQRLETTVAQYGDRPETWQYALETVGQAVEADGAVLYIAPDLTGSVAQHYQWNLRFDWGNWLETSLWQELMRGQPSAAMEPMAAVQSTWEKPRPFTSVAPLPPTNCVPHGYTLGELEQRSDWIAPPESLSAENFQSFLIVPLAADQQWVGSLILLRKEKSLVKHWAGKRGIDRRNILPRLSFEAWE
B3: Cph1 (N514) R222G: site-directed single mutant R222G of Cph1 (N514) (protein, UniProt Q55168 1-514, looked up, variant R222G)
chain: MATTVQLSDQSLRQLETLAIHTAHLIQPHGLVVVLQEPDLTISQISANCTGILGRSPEDLLGRTLGEVFDSFQIDPIQSRLTAGQISSLNPSKLWARVMGDDFVIFDGVFHRNSDGLLVCELEPAYTSDNLPFLGFYHMANAALNRLRQQANLRDFYDVIVEEVRRMTGFDRVMLYRFDENNHGDVIAEDKRDDMEPYLGLHYPESDIPQPARRLFIHNPIGVIPDVYGVAVPLTPAVNPSTNRAVDLTESILRSAYHCHLTYLKNMGVGASLTISLIKDGHLWGLIACHHQTPKVIPFELRKACEFFGRVVFSNISAQEDTETFDYRVQLAEHEAVLLDKMTTAADFVEGLTNHPDRLLGLTGSQGAAICFGEKLILVGETPDEKAVQYLLQWLENREVQDVFFTSSLSQIYPDAVNFKSVASGLLAIPIARHNFLLWFRPEVLQTVNWGGDPNHAYEATQEDGKIELHPRQSFDLWKEIVRLQSLPWQSVEIQSALALKKAIVNLILRQAEE
modifications: N514 fragment
B4: Cph1 (N514) DR171/2AG: double mutant D171A/R172G of Cph1 (N514) (protein, UniProt Q55168 1-514, looked up, variant D171A R172G)
chain: MATTVQLSDQSLRQLETLAIHTAHLIQPHGLVVVLQEPDLTISQISANCTGILGRSPEDLLGRTLGEVFDSFQIDPIQSRLTAGQISSLNPSKLWARVMGDDFVIFDGVFHRNSDGLLVCELEPAYTSDNLPFLGFYHMANAALNRLRQQANLRDFYDVIVEEVRRMTGFAGVMLYRFDENNHGDVIAEDKRDDMEPYLGLHYPESDIPQPARRLFIHNPIRVIPDVYGVAVPLTPAVNPSTNRAVDLTESILRSAYHCHLTYLKNMGVGASLTISLIKDGHLWGLIACHHQTPKVIPFELRKACEFFGRVVFSNISAQEDTETFDYRVQLAEHEAVLLDKMTTAADFVEGLTNHPDRLLGLTGSQGAAICFGEKLILVGETPDEKAVQYLLQWLENREVQDVFFTSSLSQIYPDAVNFKSVASGLLAIPIARHNFLLWFRPEVLQTVNWGGDPNHAYEATQEDGKIELHPRQSFDLWKEIVRLQSLPWQSVEIQSALALKKAIVNLILRQAEE
modifications: N514 fragment
B5: Cph1 (N514) DR171/2AA: double mutant D171A/R172A of Cph1 (N514) (protein, UniProt Q55168 1-514, looked up, variant D171A R172A)
chain: MATTVQLSDQSLRQLETLAIHTAHLIQPHGLVVVLQEPDLTISQISANCTGILGRSPEDLLGRTLGEVFDSFQIDPIQSRLTAGQISSLNPSKLWARVMGDDFVIFDGVFHRNSDGLLVCELEPAYTSDNLPFLGFYHMANAALNRLRQQANLRDFYDVIVEEVRRMTGFAAVMLYRFDENNHGDVIAEDKRDDMEPYLGLHYPESDIPQPARRLFIHNPIRVIPDVYGVAVPLTPAVNPSTNRAVDLTESILRSAYHCHLTYLKNMGVGASLTISLIKDGHLWGLIACHHQTPKVIPFELRKACEFFGRVVFSNISAQEDTETFDYRVQLAEHEAVLLDKMTTAADFVEGLTNHPDRLLGLTGSQGAAICFGEKLILVGETPDEKAVQYLLQWLENREVQDVFFTSSLSQIYPDAVNFKSVASGLLAIPIARHNFLLWFRPEVLQTVNWGGDPNHAYEATQEDGKIELHPRQSFDLWKEIVRLQSLPWQSVEIQSALALKKAIVNLILRQAEE
modifications: N514 fragment
B6: Cph1 (N514) Wild Type: N514 deletion mutant of Synechocystis sp. PCC 6803 apophytochrome Cph1, wild-type sequence (protein, UniProt Q55168 1-514, looked up, fragment)
chain: MATTVQLSDQSLRQLETLAIHTAHLIQPHGLVVVLQEPDLTISQISANCTGILGRSPEDLLGRTLGEVFDSFQIDPIQSRLTAGQISSLNPSKLWARVMGDDFVIFDGVFHRNSDGLLVCELEPAYTSDNLPFLGFYHMANAALNRLRQQANLRDFYDVIVEEVRRMTGFDRVMLYRFDENNHGDVIAEDKRDDMEPYLGLHYPESDIPQPARRLFIHNPIRVIPDVYGVAVPLTPAVNPSTNRAVDLTESILRSAYHCHLTYLKNMGVGASLTISLIKDGHLWGLIACHHQTPKVIPFELRKACEFFGRVVFSNISAQEDTETFDYRVQLAEHEAVLLDKMTTAADFVEGLTNHPDRLLGLTGSQGAAICFGEKLILVGETPDEKAVQYLLQWLENREVQDVFFTSSLSQIYPDAVNFKSVASGLLAIPIARHNFLLWFRPEVLQTVNWGGDPNHAYEATQEDGKIELHPRQSFDLWKEIVRLQSLPWQSVEIQSALALKKAIVNLILRQAEE
B7: Cph1 (N514) D171A: site-directed single mutant D171A of Cph1 (N514) (protein, UniProt Q55168 1-514, looked up, variant D171A)
chain: MATTVQLSDQSLRQLETLAIHTAHLIQPHGLVVVLQEPDLTISQISANCTGILGRSPEDLLGRTLGEVFDSFQIDPIQSRLTAGQISSLNPSKLWARVMGDDFVIFDGVFHRNSDGLLVCELEPAYTSDNLPFLGFYHMANAALNRLRQQANLRDFYDVIVEEVRRMTGFARVMLYRFDENNHGDVIAEDKRDDMEPYLGLHYPESDIPQPARRLFIHNPIRVIPDVYGVAVPLTPAVNPSTNRAVDLTESILRSAYHCHLTYLKNMGVGASLTISLIKDGHLWGLIACHHQTPKVIPFELRKACEFFGRVVFSNISAQEDTETFDYRVQLAEHEAVLLDKMTTAADFVEGLTNHPDRLLGLTGSQGAAICFGEKLILVGETPDEKAVQYLLQWLENREVQDVFFTSSLSQIYPDAVNFKSVASGLLAIPIARHNFLLWFRPEVLQTVNWGGDPNHAYEATQEDGKIELHPRQSFDLWKEIVRLQSLPWQSVEIQSALALKKAIVNLILRQAEE
modifications: N514 fragment

Experiment: Covalent bilin (PCB) binding of recombinant apophytochrome polypeptides upon incubation with PCB (zinc blot)
Details: incubation with PCB
Description: This work thus confirms that the structural motif illustrated in FIG. 2 represents the bilin-binding domain of the ‘phytochrome superfamily’ from which new phytofluors of different colors can be devised.
Based on the multiple sequence alignment shown in FIG. 2, and using methods described in W098/04700, a bacterial expression vector express a Strep-Tagged version of N-terminal 197 amino acid region of Cph2 (Cph2-N197) that encompassed ‘module 1’ only was constructed (see, FIG. 3).
To address the importance of conserved residues in the bilin lyase domain of Cph1 to bilin attachment and spectral properties of its bilin adducts, site-directed mutagenesis of some of these residues were undertaken. Charged residues D171, R172, E189 and R222 of Cph1 (N514) were mutagenized in the initial studies.

Question: For B1, which “covalent binding of PCB” value is on record?
Answer: The value was “yielded a covalent biliprotein adduct”.

Question: With B2 as the molecule, how does the “covalent binding of PCB” value read?
Answer: The value was “covalently bind PCB”.

Same assay, conditions: site-directed mutants of Cph1 (N514)

Question: For B3, which “PCB Binding” value is on record?
Answer: The value was “yes”.

Question: For B4, which “PCB Binding” value is on record?
Answer: Its value is “no”.

Question: Which “PCB Binding” value does the source give for B5 here?
Answer: The value was “no”.

Question: Which “PCB Binding” value does the source give for B6 here?
Answer: The value was “yes”.

Question: For B7, which “PCB Binding” value is on record?
Answer: The value was “yes”.
